B1: CA141 (antibody, V domains shown)
VH: EVQLVESGGGLVKPGGSLRLSCAASGFTFSSYSMNWVRQAPGKGLEWVSSISSSSSYIYYADSVKGRFTISRDNAKNSLYLQMNSLRAEDTAVYYCARASENGDDAFDIWGQGTMVTVSS
VL: EIVLTQSPATLSLSPGERATLSCRASQSVSSYLAWYQQKPGQAPRLLIYDASNRATGIPARFSGSGSGTDFTLTISSLEPEDFAVYYCQQRSNWPPYTFGQGTKLEIK
B2: CA143 (antibody, V domains shown)
VH: EVQLVESGGGLVKPGGSLRLSCAASGFTFSSYSMNWVRQAPGKGLEWVSSISSSSSYIYYADSVKGRFTISRDNAKNSLYLQMNSLRAEDTAVYYCARDSLPAGDYFDYWGQGTLVTVSS
VL: DIQLTQSPSFLSASVGDRVTITCRASQGISSYLAWYQQKPGKAPKLLIYAASTLQSGVPSRFSGSGSGTEFTLTISSLQPEDFATYYCQQLNSYPQTTFGGGTKVEIK
B3: CA144 (antibody, V domains shown)
VH: EVQLVESGGGLVKPGGSLRLSCAASGFTFSSYSMNWVRQAPGKGLEWVSSISSSSSYIYYADSVKGRFTISRDNAKNSLYLQMNSLRAEDTAVYYCARDRVEMAFHFDYWGQGTLVTVSS
VL: not shown
B4: CA163 (antibody, V domains shown)
VH: QVQLVQSGAGASVKVSCKASGNTFTSYGISWVRQAPGQGLEWMGWIIPYNGNTNYAQKFQGRVTMTTDTSTSTAYMELRSLRSDDTAVYYCARDGEVGAFDNYYYYCGYGVIVTTAS
VL: not shown
B5: CA153 (antibody, V domains shown)
VH: EVQLVESGGGLVKPGGSLRLSCAASGFTFSSYSMNWVRQAPGKGLEWVSSISSSSSYIYYADSVKGRFTISRDNAKNSLYLQMNSLRAEDTAVYYCARLTYYYYMDVWGKGTTVTVSS
VL: not shown
B6: CA158 (antibody, V domains shown)
VH: EVQLVESGGGLVKPGGSLRLSCAASGFTFSSYSMNWVRQAPGKGLEWVSSISSSSSYIYYADSVKGRFTISRDNAKNSLYLQMNSLRAEDTAVYYCARMYQLAAIDYWGQGTLVTVSS
VL: not shown
B7: CA157 (antibody, V domains shown)
VH: EVQLVESGGGLVQPGGSLRLSCAASGFTFSSYEMNWVRQAPGKGLEWVSYISSSGSTIYYADSVKGRFTISRDNAKNSLYLQMNSLRAEDTAVYYCARGYCSSTSCPFDYWGQGTLVTVSS
VL: not shown
B8: CA159 (antibody, V domains shown)
VH: QVQLVQSGAEVKKPGSSVKVSCKASGGTFSSYAISWVRQAPGQGLEWMGGIIPIFGTANYAQKFQGRVTITADESTSTAYMELSSLRSEDTAVYYCARASYYYYYMDVWGKGTTVTVSS
VL: not shown
B9: CA166 (antibody, V domains shown)
VH: EVQLVESGGGLVKPGGSLRLSCAASGFTFSSYSMNWVRQAPGKGLEWVSSISSSSSYIYYADSVKGRFTISRDNAKNSLYLQMNSLRAEDTAVYYCARVMITFGGADYWGQGTLVTVSS
VL: DIQMTQSPSSLSASVGDRVTITCRASQNINTYLNWYQKRPGIAPKLLIYGASSLQSGVPSRFSGSGSGTDFTLTISSLQPEDFATYYCQQYHTSPLTFGGGTPVDIK
B10: CA146 (antibody, V domains shown)
VH: QVQLVESGGGVVQPGRSLRLSCAASGFTFSSYGMHWVRQAPGKGLEWVAVISYDGSNKYYADSVKGRFTISRDNSKNTLYLQMNSLRAEDTAVYYCAKDRYSIVGATSNGMDVWGQGTTVTVSS
VL: not shown
B11: CA154 (antibody, V domains shown)
VH: not shown
VL: AIRMTQSPSSFSASTGDRVTITCRASQGISSYLAWYQQKPGKAPKLLIYAASTLQSGVPSRFSGSGSGTDFTLTISCLQSEDFATYYCQQYYSYALTFGGGTKVEIK
B12: CA148 (antibody, V domains shown)
VH: QVQLVQSGAEVKKPGASVKVSCKASGYTFTSYGISWVRQAPGQGLEWMGWISAYNGNTNYAQKLQGRVTMTTDTSTSTAYMELRSLRSDDTAVYYCARTPGDEYYYYYYMDVWGKGTTVTVSS
VL: EIVLTQSPATLSLSPGERATLSCRASQSVSSYLAWYQQKPGQAPRLLIYDASNRATGIPARFSGSGSGTDFTLTISSLEPEDFAVYYCQQRSNWPRTFGQGTKLEIK
B13: CA149 (antibody, V domains shown)
VH: EVQLVESGGGLVKPGGSLRLSCAASGFTFSSYSMNWVRQAPGKGLEWVSSISSSSSYIYYADSVKGRFTISRDNAKNSLYLQMNSLRAEDTAVYYCARCAAGFVPDAFDIWGQGTMVTVSS
VL: not shown
B14: CA151 (antibody, V domains shown)
VH: RCSCRSRAPGLVKPSETLSLTCTVSGGSVSSGSYYWSWIRQPPGKGLEWIGYIYYSGSTNYNPSLKSRVTISVDTSKNQFSLKLSSVTAADTAVYYCASFTRMSPYAFDIWGQGTMVTVSS
VL: not shown
B15: CA145 (antibody, V domains shown)
VH: QVQLVESGGGLVKPGGSLRLSCAASGFTFSDYYMSWIRQAPGKGLEWVSYISSSGSTIYYADSVKGRFTISRDNAKNSLYLQMNSLRAEDTAVYYCARDVLELRWWFDPWGQGTLVTVSS
VL: not shown
B16: CA162 (antibody, V domains shown)
VH: QVQLVESGGGLVKPGGSLRLSCAASGFTFSDYYMSWIRQAPGKGLEWVSYISSSSSYTNYADSVKGRFTISRDNAKNSLYLQMNSLRAEDTAVYYCARGRTMFKNYYDSSGYYGYFDYWGQGTLVTVSS
VL: DIQMTQSPSSVSASVGDRVTITCRASQGISSWLAWYQQKPGKAPKLLIYAASSLQSGVPSRFSGSGSGTDFTLTISSLQPEDFATYYCQQANSPLTFGGGTKVEIK
B17: CA139 (antibody, V domains shown)
VH: not shown
VL: DIQMTQSPSSLSASVGDRVTITCRASQGISNYLAWFQQKPGKAPKSLIYAASSLQSGVPSKFSGSGSGTDFTLTISSLQPEDFATYYCQQYNSYPLTFGGGTKVEIK
B18: CA150 (antibody, V domains shown)
VH: QVQLVQSGAEVKKPGSSVKVSCKASGGTFSSYAISWVRQAPGQGLEWMGGIIPIFGTANYAQKFQGRVTITADESTSTAYMELSSLRSEDTAVYYCASFPNCSSTSCYYYYYMDVWGKGTTVTVSS
VL: QSALTQPASVSGSPGQSITISCTGTSSDVGGYNYVSWYQQHPGKAPKLMIYDVSNRPSGVSNRFSGSKSGNTASLTISGLQAEDEADYYCSSYTSSSTRDVVFGGGTKLTVL
B19: CA156 (antibody, V domains shown)
VH: EVQLVESGGGLVKPGGSLRLSCAASGFTFSSYSMNWVRQAPGKGLEWVSSISSSSSYIYYADSVKGRFTISRDNAKNSLYLQMNSLRAEDTAVYYCARDFSGDFWSGYDYWGQGTLVTVSS
VL: not shown
B20: CA155 (antibody, V domains shown)
VH: QVQLVESGGGLVKPGGSLRLSCAASGFTFSDYYMSWIRQAPGKGLEWVSYISSSSSYTNYADSVKGRFTISRDNAKNSLYLQMNSLRAEDTAVYYCARGGIYYYYYMDVWGKGTTVTVSS
VL: not shown

We go through 20 molecules from PMC8960791 (Communications Biology, 2022).

In the test the target is soluble HLA-E-VL9, HLA-E*01:03 heavy chain refolded with β2-microglobulin and synthetic VL9 peptide (Homo sapiens, HLA-E*01:03, strain).
B1: the binding result is listed as “binds”.

Take B2: the binding result is “binds”.

Turning to B3, the binding result is “binds”.

As for B4, the binding result is on record as “binds”. Regarding B5, the binding result is reported as “binds”.

For B6, the binding result is “binds”. As to B7, the binding result is given as “binds”. Take B8: the binding result is recorded as “binds”. On to B9, for which the binding result is recorded as “binds”. For the molecule B10, the binding result is recorded as “binds”. For the molecule B11, the binding result was “binds”.

For the molecule B12, the binding result is “binds”. For the molecule B13, the binding result is “binds”. Under B14 stands “binds”; under B15, “binds”. As for B16, the binding result is on record as “binds”. For B17, the binding result was “binds”. With B18, the binding result is listed as “binds”.

Turning to B19, the binding result is “binds”. Under B20 stands “binds”.
